This is an account of results in article PMC5642512.

For test [1], the target named is Nur77 (UniProt P22736). The test is described as follows: co-IP of transfected tagged proteins. Conditions: reference: wild-type Flag-Bcl-2.
Test [2] addresses Nur77 (UniProt P22736). The test can be described thus: co-IP anti-Flag (Nur77), anti-Myc (Bcl-2) blot. Conditions: reference: wild-type Myc-Bcl-2; sites S87.

As for “Bcl-2 (from UniProt P10415) Flag-Bcl-2/S87A”, the “binding against the reference” value in test [1] (sites S87) is recorded as “weaker”.

For “Bcl-2 (from UniProt P10415) Flag-Bcl-2/T56A”, the “binding against the reference” value in test [1] (sites T56) is reported as “weaker”.

Regarding “Bcl-2 (from UniProt P10415) Myc-Bcl-2/S87A”, in test [2], the “binding against the reference” value was “lost”.
